We go through one substance from patent publication US9217036.

This assay concerns the target full-length mouse PrP, cellular prion protein PrP^c (mouse) (UniProt P04925).

What is called IC50 is the concentration at which inhibition is half-maximal. Read a high IC50 as weaker potency.

Chain of full-length mouse PrP, cellular prion protein PrP^c (mouse) (P04925 23-230 limits assumed): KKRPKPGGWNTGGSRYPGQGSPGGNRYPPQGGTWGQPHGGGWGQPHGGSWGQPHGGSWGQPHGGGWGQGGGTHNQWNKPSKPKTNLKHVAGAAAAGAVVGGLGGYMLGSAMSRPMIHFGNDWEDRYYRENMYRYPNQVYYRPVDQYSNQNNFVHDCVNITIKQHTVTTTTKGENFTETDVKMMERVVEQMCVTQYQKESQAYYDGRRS

In turn, 6D11 anti-PrP mouse monoclonal antibody returned a concentration for half-maximal inhibition (IC50) of 1 nM.
